Test results from article doi:10.1101/354985.

Experiments:
Assay in all cases: EMSA
POT1a;TPP1 [1] = biological target: T1, POT1a;TPP1 (mouse;mouse?, UniProt Q91WC1;Q5EE38 1-640;1-416, |)
T1 sequence 1: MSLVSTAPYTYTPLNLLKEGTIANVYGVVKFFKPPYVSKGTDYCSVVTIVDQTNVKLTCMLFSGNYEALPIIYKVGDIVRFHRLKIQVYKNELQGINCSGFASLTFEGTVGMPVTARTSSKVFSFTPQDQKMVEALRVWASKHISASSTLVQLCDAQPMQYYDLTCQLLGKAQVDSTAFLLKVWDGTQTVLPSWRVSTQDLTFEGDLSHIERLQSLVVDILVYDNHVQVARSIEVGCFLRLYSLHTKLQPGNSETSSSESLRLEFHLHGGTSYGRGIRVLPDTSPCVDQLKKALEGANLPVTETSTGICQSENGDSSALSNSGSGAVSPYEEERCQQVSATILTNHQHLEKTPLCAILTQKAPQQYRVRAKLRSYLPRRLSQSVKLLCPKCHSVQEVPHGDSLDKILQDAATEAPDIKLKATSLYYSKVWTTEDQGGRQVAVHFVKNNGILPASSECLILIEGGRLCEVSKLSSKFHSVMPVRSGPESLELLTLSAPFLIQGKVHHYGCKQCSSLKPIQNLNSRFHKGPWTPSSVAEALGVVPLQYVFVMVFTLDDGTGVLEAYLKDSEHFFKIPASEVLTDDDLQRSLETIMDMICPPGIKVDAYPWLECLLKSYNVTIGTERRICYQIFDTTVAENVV
T1 sequence 2: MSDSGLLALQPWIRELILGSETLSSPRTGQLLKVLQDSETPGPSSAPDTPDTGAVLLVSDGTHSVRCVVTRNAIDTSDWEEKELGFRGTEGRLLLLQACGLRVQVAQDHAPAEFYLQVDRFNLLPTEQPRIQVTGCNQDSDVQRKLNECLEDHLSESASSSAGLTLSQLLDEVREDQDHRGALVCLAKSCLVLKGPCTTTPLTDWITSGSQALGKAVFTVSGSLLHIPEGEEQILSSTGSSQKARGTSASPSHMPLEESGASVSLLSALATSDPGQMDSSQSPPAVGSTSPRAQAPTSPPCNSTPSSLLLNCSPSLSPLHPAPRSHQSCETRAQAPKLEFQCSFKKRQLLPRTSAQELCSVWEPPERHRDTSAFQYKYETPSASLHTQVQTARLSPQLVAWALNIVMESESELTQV

Δ70-POT1aC;TPP1 [2] = biological target: T2, Δ70-POT1aC;TPP1 (mouse? (POT1a part); RPA70 organism not …, UniProt Q8VEE4;Q5EE38 191-623+Q91WC1:149-640;1-416, internal_change|)
POT1a;TPP1 [3] = biological target: T1, POT1a;TPP1; remark: listed apart in the source
Δ70-POT1aC;TPP1 [4] = biological target: T2, Δ70-POT1aC;TPP1; remark: listed apart in the source

Binder	Kd (POT1a;TPP1 [1])	Kd (Δ70-POT1aC;TPP1 [2])	binding result (POT1a;TPP1 [3])	binding result (Δ70-POT1aC;TPP1 [4])
TTAGGGTTAGGGTTAGGGTTAGGGTTAGGGTTAG (ssDNA) [Telo34]	~0.5 nM	~0.5 nM	–	–
ATGCGACTCGAGCTAGATGATGTCTTCTGCAATCA (ssDNA) [Scr35]	–	–	no binding	binds
